Experimental data taken from paper PMC7457611 (bioRxiv, 2020).

Biological target: SARS-CoV-2 spike receptor-binding domain (RBD), residues 331-524 (SARS-CoV-2, early isolate GenBank …, UniProt P0DTC2)
Test: SPR

Row | Binder | binding result
1 | C119 IgG (antibody, V domains shown) VH: QVQLVQSGAEVKKPGASVKVSCKASGYTFTSYYMHWVRQAPGQGLEWMGIINPSGGSTSYAQKLQGRVTMTRDTSTSTVYMELSSLRSEDTAVYYCARANHETTMDTYYYYYYMDVWGKGTTVTVSS VL: QSALTQPASVSGSPGQSITISCTGTSSDVGGYKYVSWYQRHPGKAPKLMIYDVSNRPSGVSNRFSGSKSGNTASLTISGLQAEDEADYYCSSYTSSSTSVVFGGGTQLTVL | binds
2 | C104 IgG (antibody, V domains shown) VH: QVQLQQWGAGLLKPSETLSLSCAVYGGSLSGYYWSWIRQPPGKGLEWIGEINHFGSTGYNPSLKSRVTISVDTSKSQFSVKLSSVTAADTAVYYCARKPLLYSNLSPGAFDIWGQGTMVTVSS VL: EIVLTQSPGTVSLSPGERATLSCWASQSVSASYLAWYQQKPGQAPRLLIYGASSRATGIPDRFSGSGSGTDFTLTISRLEPEDFAVYYCQQYGTTPRTFGGGTKVEIK | binds
3 | C105 IgG (antibody, V domains shown) VH: QVQLVESGGGLIQPGGSLRLSCAASGFTVSSNYMSWVRQAPGKGLEWVSVIYSGGSTYYADSVKGRFTISRDNSKNTLYLQMNSLRAEDTAVYYCARGEGWELPYDYWGQGTLVTVSS VL: QSALTQPPSASGSPGQSVTISCTGTSSDVGGYKYVSWYQQHPGKAPKLMIYEVSKRPSGVPDRFSGSKSGNTASLTVSGLQAEDEADYYCSSYEGSNNFVVFGGGTKLTVL | binds
4 | C110 IgG (antibody, V domains shown) VH: QVQLQQSGAEVKKPGESLKISCKGSGYSFTSYWIGWVRQMPGKGLEWMGIIYPGDSDTRYSPSFQGQVTISADKSISTAYMQWSSLKASDTAMYYCARSFRDDPRIAVAGPADAFDIWGQGTMVTVSS VL: DIQMTQSPSTLSASVGDRVTITCRASQSISYWLAWYQQKPGKAPKLLIYQASSLESGVPSRFSGSESGTEFTLTISSLQPDDFATYYCQQYNSYPYTFGQGTKLEIK | binds
5 | C002 IgG (antibody, V domains shown) VH: EVQLVESGGGVVQPGRSLRLSCAASGFTFSIYGMHWVRQAPGKGLEWVAVISYDGSNKYYADSVKGRFTISRDNSKNTLYLQMNSLRAEDTAVYYCAKEGRPSDIVVVVAFDYWGQGTLVTVSS VL: not shown | binds
6 | C121 IgG (antibody, V domains shown) VH: not shown VL: QSALTQPASVSGSPGQSITISCTGTSSDVGSYNLVSWYQQHPGKAPKLMIYEGSKRPSGVSNRFSGSKSGNTASLTISGLQAEDEADYYCCSYAGSSTLVFGGGTKLTVL | binds
